{"source": "patent EP3904368A2", "target": "Acetylcholine receptor on AchR-overexpressed TE671 cells", "experiment": "cell-based or functional assay", "data": [{"substance": "Synake (peptide)", "values": [{"measurement": "IC50 value for AchR (inhibition of AchR action, TE671 cells)", "result": 75, "unit": "µM"}]}]}
